Reference: patent US20120164161A1 (AFFITECH RESEARCH, published 2012)
Residue numbers refer to the chain shown, from its start. One block for each binder: values may come before it.

Key:
[1] = target: T1, human CC chemokine receptor 4 (CCR4) (human, UniProt P51679 1-360); assay: cell-based or functional assay
T1 sequence (looked up): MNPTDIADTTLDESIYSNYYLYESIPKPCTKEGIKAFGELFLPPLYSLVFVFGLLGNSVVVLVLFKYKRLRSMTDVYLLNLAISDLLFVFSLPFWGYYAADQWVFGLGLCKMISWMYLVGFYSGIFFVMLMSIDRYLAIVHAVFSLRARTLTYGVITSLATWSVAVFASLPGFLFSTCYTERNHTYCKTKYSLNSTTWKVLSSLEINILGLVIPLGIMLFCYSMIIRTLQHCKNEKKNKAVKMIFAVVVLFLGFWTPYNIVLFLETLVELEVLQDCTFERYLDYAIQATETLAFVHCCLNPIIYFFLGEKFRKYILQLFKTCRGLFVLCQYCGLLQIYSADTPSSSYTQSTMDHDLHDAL

[2] = target: T1, human CC chemokine receptor 4 (CCR4); assay: competition in flow cytometry on CCRF-CEM cells: scFv titrated against 50 nM Alexa647-labelled MDC-SNAP; remaining MDC-SNAP signal (Alexa 647)
Method: To determine whether the anti-CCR4 antibodies from Example 1 interfere with the binding of CCR4 ligands to the receptor, competition experiments were performed. […] The SNAP-tag is derived from the 20 kDa DNA repair protein 06-alkylguanine-DNA alkyltransferase.
The CCR4+ CCRF-CEM-cells were harvested from culture flasks, washed 2 times with RPMI-1640 culture medium and aliquot 1×10^5 cells per well into V-shaped 96-well plates (Greiner Bio-One, Frickenhausen, Germany). Cells were centrifuged at 500×g for 5 minutes and the supernatant was aspirated.

[3] = target: T1, human CC chemokine receptor 4 (CCR4); assay: cell-based or functional assay; remark: listed apart in the source

B1: 601 scFv (scFv, not shown: small tags and cut ends)
scFv: QVQLVQSGAEVKKPGSSVKVSCKASGGTFSSYAMSWVRQAPGQGLEWMGGIIPIFGTVNYAQKFQGRVTMTRDTSTSTVYMELSSLRSDDTAVYYCARRRGAKFDYWGQGTLVTVSSKLSGSASAPKLEEGEFSEARVSYVLTQQPSASGTPGQSVTISCSGSTSNIGSHYVVWYQQLPGTAPRLLIYRNHQRPSGVPDRLSGSKSGTSASLAIGGLRSEDEADYYCAVWDDTLSGWVFGGGTKLTV
- IC50 of inhibition of TARC-mediated Ca-Flux in CCRF-CEM cells [1]: 3 pM

B3: 501 scFv (scFv, not shown: small tags and cut ends)
scFv: QVQLVQSGAEVKKPGSSVKVSCKASEGTFSSYAMSWVRQAPGQGLEWMGGIIPIFGTVNYAQKFQGRVTMTRDTSTSTVYMELSSLRSDDTAVYYCARRRGAKFDYWGQGTLVTVSSKLSGSASAPKLEEGEFSEARVSYVLTQQPSASGTPGQSVTISCSGSTSNIGSHYVVWYQQLPGTAPRLLIYRNHQRPSGVPDRLSGSKSGTSASLAIGGLRSEDEADYYCAVWDDTLSGWVFGGGTKLTVL
notes: Expressed in TG1 bacteria; also called scFv 501; antibody 501 (single chain form)
- IC50 of inhibition of TARC-mediated Ca-Flux in CCRF-CEM cells [1]: 1 pM
- IC50 (read off the curve) [2]: ~300 pM

B4: 503 scFv (scFv, not shown: small tags and cut ends)
scFv: B3 scFv with Q145P
notes: Expressed in TG1 bacteria
- IC50 of inhibition of TARC-mediated Ca-Flux in CCRF-CEM cells [1]: 1.2 pM
- IC50 (read off the curve) [2]: ~300 pM

B5: 308 scFv (scFv, not shown: small tags and cut ends)
scFv: QVQLVQSGAEVKKPGSSVKVSCKASGGTFSSYAMSWVRQAPGQGLEWMGGIIPIFGTVNYAQKFQGRVTMTRDTSTSTVYMELSSLRPDDTAVYYCARRGGSYFDYWGQGTLVTVSSKLSGSASAPKLEEGEFSEARVSYVLTQPPSASGTPGQSVTISCSGSTSNIGSHYVFWYQQLPGTAPRLLIYRNHQRPSGVPDRLSGSKSGTSASLAISGLRSEDEADYYCAVWDAKYRGWVFGGGTKLTVL
- IC50 of inhibition of TARC-mediated Ca-Flux in CCRF-CEM cells [1]: 3 pM

B7: 306 scFv (scFv, not shown: small tags and cut ends)
scFv: B5 scFv with F173S
- IC50 of inhibition of TARC-mediated Ca-Flux in CCRF-CEM cells [1]: 1.2 pM

The next lines start with results.

- IC50 of inhibition of TARC-mediated Ca-Flux in CCRF-CEM cells [1]: 1.9 pM
B2: 208 scFv (scFv, not shown: small tags and cut ends)
scFv: B5 scFv with P88S

- IC50 of inhibition of TARC-mediated Ca-Flux in CCRF-CEM cells [1]: 10 pM
- IC50 (read off the curve) [2]: ~200 pM
B6: 803 scFv (scFv, not shown: small tags and cut ends)
scFv: B3 scFv with E26G, M34I, V58A, D89E, Q145P
notes: Expressed in TG1 bacteria; also called scFv 803; antibody 803 (single chain form)

- IC50 of inhibition of TARC-mediated Ca-Flux in CCRF-CEM cells [1]: 1 pM
- IC50 (read off the curve) [2]: ~100 pM
B8: 406 scFv (scFv, not shown: small tags and cut ends)
scFv: B5 scFv with G26E, P88S, F173S
notes: Expressed in TG1 bacteria

- ADCC on CCRF-CEM cells with human PBMCs, EC50 [3]: 315 pM
- ADCC on L-428 cells with human PBMCs, EC50 [3]: 57 pM
B9: KW0761 IgG (antibody, V domains shown)
VH: EVQLVESGGDLVQPGRSLRLSCAASGFIFSNYGMSWVRQAPGKGLEWVATISSASTYSYYPDSVKGRFTISRDNAKNSLYLQMNSLRVEDTALYYCGRHSDGNFAFGYWGQGTLVTVSS
VL: DVLMTQSPLSLPVTPGEPASISCRSSRNIVHINGDTYLEWYLQKPGQSPQLLIYKVSNRFSGVPDRFSGSGSGTDFTLKISRVEAEDVGVYYCFQGSLLPWTFGQGTKVEIK
- ADCC on CCRF-CEM cells, Max. Killing (%; nM IgG) [3]: 69.8 % (at 1.4 nM IgG)
- ADCC on L-428 cells, Max. Killing (%; nM IgG) [3]: 84 % (at 7 nM IgG)
